From the supplement of paper PMC11246515
± gives the standard deviation of the averaged measurements.

Test: total protein half-life in vivo (active degradation + dilution); higher = more stable protein
[1] = E. coli NCM3722 delta-clpP, growth: N-lim chemostat, doubling time 6 h
[2] = E. coli NCM3722 delta-hslV, growth: N-lim chemostat, doubling time 6 h
[3] = E. coli NCM3722 delta-lon, growth: N-lim chemostat, doubling time 6 h
[4] = E. coli NCM3722 delta-smpB, growth: N-lim chemostat, doubling time 6 h
[5] = wild type E. coli NCM3722, growth: C-lim chemostat, doubling time 3 h
[6] = wild type E. coli NCM3722, growth: C-lim chemostat, doubling time 6 h
[7] = wild type E. coli NCM3722, growth: C-lim chemostat, doubling time 12 h
[8] = wild type E. coli NCM3722, growth: N-lim chemostat, doubling time 6 h
[9] = wild type E. coli NCM3722, growth: N-lim chemostat, doubling time 12 h
[10] = wild type E. coli NCM3722, growth: P-lim chemostat, doubling time 6 h
[11] = wild type E. coli NCM3722, growth: P-lim chemostat, doubling time 12 h
[12] = E. coli NCM3722 delta-clpP delta-lon delta-hslV, growth: N-lim chemostat, doubling time 6 h

Sequence	total protein half-life in vivo [1] [h]	total protein half-life in vivo [2] [h]	total protein half-life in vivo [3] [h]	total protein half-life in vivo [4] [h]	total protein half-life in vivo [5] [h]	total protein half-life in vivo [6] [h]	total protein half-life in vivo [7] [h]	total protein half-life in vivo [8] [h]	total protein half-life in vivo [9] [h]	total protein half-life in vivo [10] [h]	total protein half-life in vivo [11] [h]	total protein half-life in vivo [12] [h]
MRYIRQLCCVSLLCLSGSAVAANVRLQVEGLSGQLEKNVRAQLSTIESDEVTPDRRFRARVDDAIREGLKALGYYQPTIEFDLRPPPKKGRQVLIAKVTPGVPVLIGGTDVVLRGGARTDKDYLKLLDTRPAIGTVLNQGDYENFKKSLTSIALRKGYFDSEFTKAQLGIALGLHKAFWDIDYNSGERYRFGHVTFEGSQIRDEYLQNLVPFKEGDEYESKDLAELNRRLSATGWFNSVVVAPQFDKARETKVLPLTGVVSPRTENTIETGVGYSTDVGPRVKATWKKPWMNSYGHSLTTSTSISAPEQTLDFSYKMPLLKNPLEQYYLVQGGFKRTDLNDTESDSTTLVASRYWDLSSGWQRAINLRWSLDHFTQGEITNTTMLFYPGVMISRTRSRGGLMPTWGDSQRYSIDYSNTAWGSDVDFSVFQAQNVWIRTLYDRHRFVTRGTLGWIETGDFDKVPPDLRFFAGGDRSIRGYKYKSIAPKYANGDLKGASKLITGSLEYQYNVTGKWWGAVFVDSGEAVSDIRRSDFKTGTGVGVRWESPVGPIKLDFAVPVADKDEHGLQFYIGLGPEL [P0ADE4]	6.81 ± 0.13	6.538 ± 0.011	6.38 ± 0.61	5.85 ± 0.15	3.013 ± 0.0066	6.21 ± 0.37	12.8 ± 0.55	6.59 ± 1	13.5 ± 0.56	6.31 ± 0.16	13.8 ± 0.96	–
MHSERAPFFLKLAAWGGVVFLHFPILIIAAYAFNTEDAAFSFPPQGLTLRWFSVAAQRSDILDAVTLSLKVAALATLIALVLGTLAAAALWRRDFFGKNAISLLLLLPIALPGIVTGLALLTAFKTINLEPGFFTIVVGHATFCVVVVFNNVIARFRRTSWSLVEASMDLGANGWQTFRYVVLPNLSSALLAGGMLAFALSFDEIIVTTFTAGHERTLPLWLLNQLGRPRDVPVTNVVALLVMLVTTLPILGAWWLTREGDNGQ [P0AFR9]	–	–	–	–	–	–	–	–	–	–	–	6.7
MTQQPQAKYRHDYRAPDYQITDIDLTFDLDAQKTVVTAVSQAVRHGASDAPLRLNGEDLKLVSVHINDEPWTAWKEEEGALVISNLPERFTLKIINEISPAANTALEGLYQSGDALCTQCEAEGFRHITYYLDRPDVLARFTTKIIADKIKYPFLLSNGNRVAQGELENGRHWVQWQDPFPKPCYLFALVAGDFDVLRDTFTTRSGREVALELYVDRGNLDRAPWAMTSLKNSMKWDEERFGLEYDLDIYMIVAVDFFNMGAMENKGLNIFNSKYVLARTDTATDKDYLDIERVIGHEYFHNWTGNRVTCRDWFQLSLKEGLTVFRDQEFSSDLGSRAVNRINNVRTMRGLQFAEDASPMAHPIRPDMVIEMNNFYTLTVYEKGAEVIRMIHTLLGEENFQKGMQLYFERHDGSAATCDDFVQAMEDASNVDLSHFRRWYSQSGTPIVTVKDDYNPETEQYTLTISQRTPATPDQAEKQPLHIPFAIELYDNEGKVIPLQKGGHPVNSVLNVTQAEQTFVFDNVYFQPVPALLCEFSAPVKLEYKWSDQQLTFLMRHARNDFSRWDAAQSLLATYIKLNVARHQQGQPLSLPVHVADAFRAVLLDEKIDPALAAEILTLPSVNEMAELFDIIDPIAIAEVREALTRTLATELADELLAIYNANYQSEYRVEHEDIAKRTLRNACLRFLAFGETHLADVLVSKQFHEANNMTDALAALSAAVAAQLPCRDALMQEYDDKWHQNGLVMDKWFILQATSPAANVLETVRGLLQHRSFTMSNPNRIRSLIGAFAGSNPAAFHAEDGSGYLFLVEMLTDLNSRNPQVASRLIEPLIRLKRYDAKRQEKMRAALEQLKGLENLSGDLYEKITKALA	4.45 ± 0.1	4.27 ± 0.086	4.48 ± 0.29	4.38 ± 0.084	3.05 ± 0.19	5.55 ± 0.11	10.5 ± 0.56	4.36 ± 0.11	6.63 ± 0.16	5.89 ± 0.069	11.3 ± 0.68	5.11 ± 0.53
MHFLRRPISLRQRLILTIGAILLVFELISVFWLWHESTEQIQLFEQALRDNRNNDRHIMREIREAVASLIVPGVFMVSLTLFICYQAVRRITRPLAELQKELEARTADNLTPIAIHSATLEIEAVVSALNDLVSRLTSTLDNERLFTADVAHELRTPLAGVRLHLELLAKTHHIDVAPLVARLDQMMESVSQLLQLARAGQSFSSGNYQHVKLLEDVILPSYDELSTMLDQRQQTLLLPESAADITVQGDATLLRMLLRNLVENAHRYSPQGSNIMIKLQEDDGAVMAVEDEGPGIDESKCGELSKAFVRMDSRYGGIGLGLSIVSRITQLHHGQFFLQNRQETSGTRAWVRLKKDQYVANQI	–	4.89 ± 1.3	6.2 ± 1.3	5.5 ± 0.35	3.17 ± 0.22	5.99 ± 0.74	11.5 ± 0.59	5.9 ± 0.18	12.7 ± 0.62	6.25 ± 0.75	11.1 ± 1.5	5.995 ± 0.044
MSKRKVAIIGSGNIGTDLMIKILRHGQHLEMAVMVGIDPQSDGLARARRMGVATTHEGVIGLMNMPEFADIDIVFDATSAGAHVKNDAALREAKPDIRLIDLTPAAIGPYCVPVVNLEANVDQLNVNMVTCGGQATIPMVAAVSRVARVHYAEIIASIASKSAGPGTRANIDEFTETTSRAIEVVGGAAKGKAIIVLNPAEPPLMMRDTVYVLSDEASQDDIEASINEMAEAVQAYVPGYRLKQRVQFEVIPQDKPVNLPGVGQFSGLKTAVWLEVEGAAHYLPAYAGNLDIMTSSALATAEKMAQSLARKAGEAA	5.24 ± 2.6	2.65 ± 0.48	2.43	2.21 ± 0.73	2.71 ± 0.36	4.45	6.77 ± 2.3	5.59	4.45	3.53	6.2 ± 0.2	4.09 ± 1.4
MGQQKQRNRRWVLASRPHGAPVPENFRLEEDDVATPGEGQVLLRTVYLSLDPYMRGRMSDEPSYSPPVDIGGVMVGGTVSRVVESNHPDYQSGDWVLGYSGWQDYDISSGDDLVKLGDHPQNPSWSLGVLGMPGFTAYMGLLDIGQPKEGETLVVAAATGPVGATVGQIGKLKGCRVVGVAGGAEKCRHATEVLGFDVCLDHHADDFAEQLAKACPKGIDIYYENVGGKVFDAVLPLLNTSARIPVCGLVSSYNATELPPGPDRLPLLMATVLKKRIRLQGFIIAQDYGHRIHEFQREMGQWVKEDKIHYREEITDGLENAPQTFIGLLKGKNFGKVVIRVAGDD	5.13 ± 1.2	5.03 ± 0.36	4.74 ± 0.34	4.16 ± 0.6	3.3 ± 0.29	5.53 ± 0.19	10.3 ± 1	4.48 ± 0.35	7.42 ± 0.32	5.59 ± 0.22	10.9 ± 0.62	4.9643 ± 0.002
MSDTLLTLRDVHINFPARKNWLGKTTEHVHAINGIDLQIRRGETLGIVGESGCGKSTLAQLLMGMLQPSHGQYIRSGSQRIMQMVFQDPLSSLNPRLPVWRIITEPLWIAKRSSEQQRRALAEELAVQVGIRPEYLDRLPHAFSGGQRQRIAIARALSSQPDVIVLDEPTSALDISVQAQILNLLVTLQENHGLTYVLISHNVSVIRHMSDRVAVMYLGQIVELGDAQQVLTAPAHPYTRLLLDSLPAIDKPLEEEWALRKTDLPGNRTLPQGCFFYERCPLATHGCEVRQSLAIREDGRELRCWRAL	3.45	–	–	4.17 ± 0.074	1.74	4.55	–	4.44	6.31 ± 0.42	–	–	–
MTIKVGINGFGRIGRIVFRAAQKRSDIEIVAINDLLDADYMAYMLKYDSTHGRFDGTVEVKDGHLIVNGKKIRVTAERDPANLKWDEVGVDVVAEATGLFLTDETARKHITAGAKKVVMTGPSKDNTPMFVKGANFDKYAGQDIVSNASCTTNCLAPLAKVINDNFGIIEGLMTTVHATTATQKTVDGPSHKDWRGGRGASQNIIPSSTGAAKAVGKVLPELNGKLTGMAFRVPTPNVSVVDLTVRLEKAATYEQIKAAVKAAAEGEMKGVLGYTEDDVVSTDFNGEVCTSVFDAKAGIALNDNFVKLVSWYDNETGYSNKVLDLIAHISK [P0A9B2]	5.43 ± 0.34	5.447 ± 0.054	5.382 ± 0.019	5.22 ± 0.19	3.35 ± 0.1	6.201 ± 0.014	12.1 ± 0.39	5.69 ± 0.16	9.73 ± 0.3	6.302 ± 0.044	12.6 ± 0.74	6.03 ± 0.4
MQLRKPATAILALALSAGLAQADDAAPAAGSTLDKIAKNGVIVVGHRESSVPFSYYDNQQKVVGYSQDYSNAIVEAVKKKLNKPDLQVKLIPITSQNRIPLLQNGTFDFECGSTTNNVERQKQAAFSDTIFVVGTRLLTKKGGDIKDFANLKDKAVVVTSGTTSEVLLNKLNEEQKMNMRIISAKDHGDSFRTLESGRAVAFMMDDALLAGERAKAKKPDNWEIVGKPQSQEAYGCMLRKDDPQFKKLMDDTIAQVQTSGEAEKWFDKWFKNPIPPKNLNMNFELSDEMKALFKEPNDKALN	6.45 ± 1.6	6.8 ± 0.39	7.14 ± 0.3	6.02 ± 0.43	3.26 ± 0.14	6.76 ± 0.34	11.3 ± 0.22	5.9 ± 0.54	14.1 ± 0.48	5.81 ± 0.41	13.2 ± 0.35	6.32 ± 0.97
MTEFTTLLQQGNAWFFIPSAILLGALHGLEPGHSKTMMAAFIIAIKGTIKQAVMLGLAATISHTAVVWLIAFGGMVISKRFTAQSAEPWLQLISAVIIISTAFWMFWRTWRGERNWLENMHGHDYEHHHHDHEHHHDHGHHHHHEHGEYQDAHARAHANDIKRRFDGREVTNWQILLFGLTGGLIPCPAAITVLLICIQLKALTLGATLVVSFSIGLALTLVTVGVGAAISVQQVAKRWSGFNTLAKRAPYFSSLLIGLVGVYMGVHGFMGIMR	–	4.77	4.13	5.43 ± 0.75	> 4	5.864 ± 0.02	10.8	–	–	5.97	11.6	–
MLDKLDAALRFQQEALNLRAQRQEVLAANIANADTPGYQARDIDFASELKKVMQRGRDATSVVALTMTSTQHIPAQALTPPTAELQYRIPDQPSLDGNTVDMDRERTQFADNSLQYQMSLSALSGQIKGMMNVLQSGN [P0ABW9]	–	–	–	–	1.32	–	–	–	–	–	–	–
MKNNSQLLMPREKMLKFGISALTDVELLALFLRTGTRGKDVLTLAKEMLENFGSLYGLLTSEYEQFSGVHGIGVAKFAQLKGIAELARRYYNVRMREESPLLSPEMTREFLQSQLTGEEREIFMVIFLDSQHRVITHRRLFSGTLNHVEVHPREIIREAIKINASALILAHNHPSGCAEPSKADKLITERIIKSCQFMDLRVLDHIVIGRGEYVSFAERGWI	–	–	–	–	3.03	–	–	4.31	–	–	–	–
MKVLIVESEFLHQDTWVGNAVERLADALSQQNVTVIKSTSFDDGFAILSSNEAIDCLMFSYQMEHPDEHQNVRQLIGKLHERQQNVPVFLLGDREKALAAMDRDLLELVDEFAWILEDTADFIAGRAVAAMTRYRQQLLPPLFSALMKYSDIHEYSWAAPGHQGGVGFTKTPAGRFYHDYYGENLFRTDMGIERTSLGSLLDHTGAFGESEKYAARVFGADRSWSVVVGTSGSNRTIMQACMTDNDVVVVDRNCHKSIEQGLMLTGAKPVYMVPSRNRYGIIGPIYPQEMQPETLQKKISESPLTKDKAGQKPSYCVVTNCTYDGVCYNAKEAQDLLEKTSDRLHFDEAWYGYARFNPIYADHYAMRGEPGDHNGPTVFATHSTHKLLNALSQASYIHVREGRGAINFSRFNQAYMMHATTSPLYAICASNDVAVSMMDGNSGLSLTQEVIDEAVDFRQAMARLYKEFTADGSWFFKPWNKEVVTDPQTGKTYDFADAPTKLLTTVQDCWVMHPGESWHGFKDIPDNWSMLDPIKVSILAPGMGEDGELEETGVPAALVTAWLGRHGIVPTRTTDFQIMFLFSMGVTRGKWGTLVNTLCSFKRHYDANTPLAQVMPELVEQYPDTYANMGIHDLGDTMFAWLKENNPGARLNEAYSGLPVAEVTPREAYNAIVDNNVELVSIENLPGRIAANSVIPYPPGIPMLLSGENFGDKNSPQVSYLRSLQSWDHHFPGFEHETEGTEIIDGIYHVMCVKA	4.96 ± 1.1	6.09 ± 0.29	5.74 ± 0.22	5.38 ± 0.21	3.193 ± 0.023	5.14 ± 0.23	11.5 ± 0.12	6.03 ± 0.28	12.1 ± 2	6.14 ± 0.3	11.5 ± 0.15	5.82 ± 0.47
MNKDEAGGNWKQFKGKVKEQWGKLTDDDMTIIEGKRDQLVGKIQERYGYQKDQAEKEVVDWETRNEYRW	4.33 ± 0.086	4.42	6.177 ± 0.038	3.64 ± 0.25	–	–	11 ± 3.5	3.59 ± 0.14	6.53 ± 1.5	3.72 ± 0.58	6.92 ± 0.27	6.99 ± 1.3
